Assay results reported in the supplement of paper PMC7877785.
± gives the uncertainty stated by the source.

Assay: self-splicing fitness, log relative to wild type (ln ratio); higher = more splicing; Tetrahymena group I intron in knt gene, E. coli kanamycin selection, DiMSum; sequences stand for … in CUCUCU…GGAGGGAAAAGUUAUCAGGCAUGCACCUGGUAGCUAGUCUUUAAACCAAUAGAUUGCAUCGGUUUAAAAGGCAAGACCGUCAAAUUGCGGGAAAGGGGUCAACAGCCGUUCAGUACCAAGUCUCAGGGGAAACUUUGAGAUGGCCUUGCAAAGGGUAUGGUAAUAAGCUGACGGACAUGGUCCUAACCACGCAGCCAAGUCCUAAGUCAACAGAUCUUCUGUUGAUAUGGAUGCAGUUCACAGACUAAAUGUCGGUCGGGGAAGAUGUAUUCUUCUCAUAAGAUAUAGUCGGACCUCUCCUUAAUGGGAGCUAGCGGAUGAAGUGAUGCAACACUGGAGCCGCUGGGAACUAAUUUGUAUGCGAAAGUAUAUUGAUUAGUUUUGGAGUACUCGUGGUCG
Method in brief: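 DiMSum derived fitness as the error-weighted combination of fold changes across replicates, kanamycin versus no kanamycin, normalised to wild type. E. coli BL21(DE3) held the library, which randomised all eight P1ex-region intron nucleotides within the knt kanamycin-resistance gene on pET-22b(+). Six replicate transformations grew overnight at 37°C or 30°C on LB agar with or without 25 μg/mL kanamycin, also containing 100 μg/mL carbenicillin, 50 μM IPTG and 0.2% rhamnose, and pooled colonies were amplicon-sequenced on an Illumina HiSeq 2500.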

Sequence	self-splicing fitness (ln) (30 °C)	self-splicing fitness (ln) (37 °C)
UACAAGCAAUAUUACGCGAU	-3.74 ± 0.32	-1.3 ± 0.2
UACUAGCAAUAUUACGUGUG	-1.37 ± 0.067	-0.828 ± 0.072
CUCCAGCAAUAUUACGCUAG	-3.91 ± 0.17	-2.7 ± 0.2
GCGGAGCAAUAUUACGACAA	-1.13 ± 0.23	-1.7 ± 0.29
CCGGAGCAAUAUUACGCACU	–	-2.69 ± 0.48
CCGAAGCAAUAUUACGACUG	-1.06 ± 0.12	0.835 ± 0.17
UAAUAGCAAUAUUACGGAGG	-3.17 ± 0.24	-2.83 ± 0.4
GUCCAGCAAUAUUACGUGGU	-1.61 ± 0.059	-1.03 ± 0.064
GGACAGCAAUAUUACGAUGG	-2.41 ± 0.1	-2.05 ± 0.13
GGUGAGCAAUAUUACGAGAG	-4.03 ± 0.27	-2.38 ± 0.18
GAGAAGCAAUAUUACGAGCA	-1.79 ± 0.15	-0.727 ± 0.14
AAGAAGCAAUAUUACGAUCU	0.00748 ± 0.089	-0.373 ± 0.11
GAGUAGCAAUAUUACGGACU	-0.25 ± 0.072	-0.487 ± 0.096
CAUAAGCAAUAUUACGUUGG	-2.6 ± 0.095	-1.26 ± 0.094
GCCCAGCAAUAUUACGUUUU	-1.53 ± 0.064	-0.591 ± 0.09
AUGAAGCAAUAUUACGGCAC	-0.455 ± 0.086	0.222 ± 0.14
GCCCAGCAAUAUUACGGUUU	0.123 ± 0.05	0.185 ± 0.063
UCCGAGCAAUAUUACGACUU	-2.69 ± 0.33	-2.98 ± 0.43
AUUAAGCAAUAUUACGACGU	0.564 ± 0.087	0.495 ± 0.093
UGAAAGCAAUAUUACGUACU	-0.121 ± 0.089	-0.476 ± 0.091
UCGUAGCAAUAUUACGGGUC	-3.02 ± 0.26	-4.36 ± 0.46
AUCGAGCAAUAUUACGCUUC	–	-3.02 ± 0.44
UAGCAGCAAUAUUACGGUCU	-1.22 ± 0.074	-1.24 ± 0.086
GGCUAGCAAUAUUACGUAUU	-0.862 ± 0.1	-0.777 ± 0.12
CUGUAGCAAUAUUACGAUGU	-5.35 ± 0.11	-5.09 ± 0.16
UUUAAGCAAUAUUACGCACC	-2.05 ± 0.21	-0.66 ± 0.22

Sequence	self-splicing fitness (ln) (30 °C)	self-splicing fitness (ln) (37 °C)
CUGGAGCAAUAUUACGGGUG	-1.61 ± 0.079	-0.251 ± 0.078
GUGAAGCAAUAUUACGUGUU	-2.74 ± 0.1	-1.23 ± 0.085
UCUCAGCAAUAUUACGAUAA	-2.15 ± 0.21	-1.33 ± 0.21
AACUAGCAAUAUUACGAGGU	-3.14 ± 0.3	-2.01 ± 0.25
GAAAAGCAAUAUUACGUGAG	-1.53 ± 0.068	-1.47 ± 0.11
ACCCAGCAAUAUUACGGAUC	-2.82 ± 0.085	-1.16 ± 0.089
UCUAAGCAAUAUUACGCGGC	–	-1.59 ± 0.36
CUACAGCAAUAUUACGUUUU	-4.17 ± 0.18	-3.26 ± 0.22
CCACAGCAAUAUUACGUUGA	-3.67 ± 0.17	-3.31 ± 0.18
AUACAGCAAUAUUACGACUG	-1.52 ± 0.077	-0.848 ± 0.097
CGGUAGCAAUAUUACGAGCA	-3.2 ± 0.31	-0.781 ± 0.17
AGCAAGCAAUAUUACGCGCC	-3.19 ± 0.34	-2.46 ± 0.32
UGGCAGCAAUAUUACGCCCC	-1.11 ± 0.29	-0.487 ± 0.36
AGCGAGCAAUAUUACGCGGU	–	-2.53 ± 0.32
CUAUAGCAAUAUUACGAGGA	-3.62 ± 0.41	-1.73 ± 0.31
GUAGAGCAAUAUUACGACGC	-0.313 ± 0.16	0.929 ± 0.22
UACGAGCAAUAUUACGCCAG	-3.79 ± 0.3	-2.88 ± 0.3
UGACAGCAAUAUUACGGCUA	-0.14 ± 0.079	0.942 ± 0.11
AUCAAGCAAUAUUACGUCUC	-2.08 ± 0.087	-1.16 ± 0.11
UAUCAGCAAUAUUACGGAUU	-0.839 ± 0.079	0.0545 ± 0.1
CUACAGCAAUAUUACGGAUG	-0.683 ± 0.056	-0.187 ± 0.076
CCGUAGCAAUAUUACGGUCA	-1.64 ± 0.12	-2.27 ± 0.19
ACAGAGCAAUAUUACGUGUC	-3.27 ± 0.22	-2.94 ± 0.38
GGUAAGCAAUAUUACGCCCC	-3.4 ± 0.45	–
GCGCAGCAAUAUUACGGACC	-1.03 ± 0.24	0.344 ± 0.38
GGCCAGCAAUAUUACGCUGC	–	-1.67 ± 0.22

Sequence	self-splicing fitness (ln) (30 °C)	self-splicing fitness (ln) (37 °C)
AGCAAGCAAUAUUACGUCAC	-2.89 ± 0.16	-1.88 ± 0.18
UCAAAGCAAUAUUACGCUGU	-3.7 ± 0.21	-2.82 ± 0.18
AGCUAGCAAUAUUACGACUG	-0.901 ± 0.072	-0.941 ± 0.12
AAGAAGCAAUAUUACGUCGG	-0.907 ± 0.12	-1.02 ± 0.14
AUUUAGCAAUAUUACGCUGG	-1.97 ± 0.27	-1.4 ± 0.33
UUCGAGCAAUAUUACGUGAA	-1.55 ± 0.27	1.01 ± 0.28
UCUAAGCAAUAUUACGUCGG	0.0423 ± 0.067	0.627 ± 0.078
UCACAGCAAUAUUACGGGUC	-3.67 ± 0.16	-2.79 ± 0.14
UUUAAGCAAUAUUACGCUCC	-2.1 ± 0.22	-0.172 ± 0.29
UCUGAGCAAUAUUACGGACU	-2.57 ± 0.39	-1.21 ± 0.41
ACGAAGCAAUAUUACGGAUA	-3.55 ± 0.32	-2.43 ± 0.23
UGAUAGCAAUAUUACGCAUC	–	-1.53 ± 0.49
GGGCAGCAAUAUUACGUGUC	-3.82 ± 0.17	-2.53 ± 0.2
AGGAAGCAAUAUUACGUAAC	-3.65 ± 0.3	-2.18 ± 0.42
GUGCAGCAAUAUUACGGGAU	-1.66 ± 0.066	-1.32 ± 0.081
UACUAGCAAUAUUACGCUGC	–	-3.01 ± 0.43
UGUCAGCAAUAUUACGUUGG	-4.09 ± 0.3	-2.22 ± 0.25
AUGCAGCAAUAUUACGUUAG	-3.05 ± 0.15	-2.38 ± 0.2
CUCGAGCAAUAUUACGCGAA	-3.3 ± 0.34	-2.41 ± 0.37
UCCCAGCAAUAUUACGGUCU	-1.83 ± 0.11	-0.794 ± 0.11
UCCUAGCAAUAUUACGGUUG	-4.08 ± 0.22	-1.81 ± 0.14
UCAAAGCAAUAUUACGUCUC	-4.01 ± 0.36	-1.5 ± 0.19
AGGCAGCAAUAUUACGCACG	-0.754 ± 0.069	-0.342 ± 0.11
UUUUAGCAAUAUUACGGCUG	-0.732 ± 0.48	-0.495 ± 0.38
ACUGAGCAAUAUUACGUGUC	-2.31 ± 0.25	-2.62 ± 0.28
